Data reported in publication PMC11661108 (bioRxiv, 2024).
Where “and” joins values, the source holds several entries; their conditions need not be identical. Equal entries are not always repeated.

Key:
Test in all cases: BLI
RBD of SARS-CoV-2 BA.1 = RBD of SARS-CoV-2 BA.1 (SARS-CoV-2 Omicron BA.1, strain, biotin (Avi tag))
RBD of SARS-CoV-2 EG.5.1 = RBD of SARS-CoV-2 EG.5.1 (SARS-CoV-2 Omicron EG.5.1, strain, biotin (Avi tag))
RBD of SARS-CoV-2 HV.1 = RBD of SARS-CoV-2 HV.1 (SARS-CoV-2 Omicron HV.1, strain, biotin (Avi tag))

B1: Fab-52 (Fab, V domains shown)
VH: EVQLVQSGGDLAPPGGSLRLSCEASGIIVSSNYMTWVRQAPGKGLEWVSLIFAGGSTFYADSVKGRFTVSRDNSKNTLYLQMSSLKPEDTAVYFCARDLREMGGLDFWGQGALVTVSS
VL: DIQMTQSPSSVSASIGDTVTITCRASQGIPSWVAWYQQKPGKAPKLLIYGASNLQRGVPSRFSGSGSGTDFTLTISSLQPEDLAVYYCHQSDSLPGIFGGGTKVEIK
Kd (RBD of SARS-CoV-2 BA.1): 1.1 nM | Kd (RBD of SARS-CoV-2 EG.5.1): 10 nM and 7 nM | Kd (RBD of SARS-CoV-2 HV.1): 12.2 nM and 9.1 nM
